In experiment [1] the target is T1, HIV PR (Human immunodeficiency virus type 1 group M subtype B, UniProt P04585).
T1 construct: preincubating the tetrapeptide(s) with HIV PR then adding the disulfide
Put plainly: Octapeptide library screen against HIV PR with and without CuCl2. It counts as biochemical. Particulars: non-substrate based inhibiting peptide; residual HIV PR activity measured after cupric ion scavenger. How it is done:
Combinatorial libraries of octapeptides were synthesized using T, L, N, F, S, G, F Q, V and I at positions 3-6 to generate 10,000 octapeptides. E and I occupied positions 1 and 2, respectively, and G, L occupied positions […], respectively. The C-terminus was in amide form, and the N terminus was in amino form. The peptide libraries were synthesized by standard procedures known in the art, Houghten, supra. The libraries were screened against HIV PR with and without CuCl2. CuCl2 was added to block 50-75% activity. Libraries were screened against CuCl2 by preincubating the tetrapeptide(s) with HIV PR, then adding CuCl2 at t0 and waiting until time tx has elapsed, the time required to inhibit 50-75% of enzyme activity in the absence of the library. At tx residual HIV PR activity was measured according to Danielson et al, supra, after adding cupric ion scavenger, namely, iminodiacetic.

A further experiment has as its target T2, HIV protease I (Human immunodeficiency virus type 1 group M subtype B, UniProt P04585).
T2 construct: HIV-1 PR (15 μg/ml final concentration) was preincubated at 25 C
Particulars: covalent attachment to Cys95 at the dimer interfaces; Davis et al.; cited from earlier work.

The target of the next experiment is HIV I protease (Human immunodeficiency virus type 1 group M subtype B, UniProt P04585). Particulars: Danielson et al.; cited from earlier work.
Experiment [2] concerns the target T1, HIV PR. Put plainly: Tetrapeptide library screen against glutathione or II on HIV PR (assay in Salto et al.). It counts as biochemical. As to conditions: tetrapeptides preincubated with HIV PR, then disulfide added; (100 μM) printed; bind at the dimer interface. As for the experimental part: Targeting Cys95. […] Davis et al. Biochemistry 20:2482-2488 (1996). For quantification of the irreversible inactivation of HIV proteases by these disulfides, HIV-1 PR (15 μg/ml final concentration) was preincubated at 25 C in 50 mM HEPES (pH 8.0), 1M NaCl, 1 mM EDTA, 5% Me2SO in the presence of a 10 μM to 1 mM concentration of each inhibitor. At various times, aliquots were removed and assayed for activity. The rates of inactivation were calculated after Salto et al. J. Biol. Chem. 269:10691-10698 (1994).
Combinatorial libraries containing tetrapeptides were synthesized with free C and N termini using T, L, N, F, R, S, V, G, F Q, and H as amino acid residues randomly located at the four positions of P4P3P2P1 according to procedures well known in the art (Houghten, R. A. Annu. Rev. Pharmacol. Toxicol. 2000, 40:273-282 and references therein). The amino acids were either spatially separated or synthesized in 100 pools of 100 tetrapeptides. Libraries were screened against glutathione or II by preincubating the tetrapeptide(s) with HIV PR then adding the disulfide and waiting until time t^ has elapsed (the time required to inhibit 50-75% of the biological target molecule's activity) in the absence of the library.

Where no end group is shown, it is not given here.

For the molecule LGQGVSIE-NH2, the “inhibitory activity against HIV PR” value with HIV PR [1] is reported as “about 5 μM”. Regarding `O=C(O)c1cc(SSc2ccc([N+](=O)[O-])c(C(=O)O)c2)ccc1[N+](=O)[O-]` [5,5′-dithiobis(2-nitrobenzoic acid)], the “inactivation of HIV protease I by covalent attachment to Cys95” value on HIV protease I is “inactivate HIV protease I”.

As to `[Cl][Cu][Cl]` [Cupric ions, CuCl2], the “inactivation of HIV I protease by binding to Cys67 and His69” value at HIV I protease is given as “specifically inactivate HIV I protease”. As to “S-F-N-L (SFNL) [tetrapeptide with free C and N termini from combinatorial library]”, the “activity in library screen against disulfide inactivation of HIV PR” value in the experiment with HIV PR [2] was “most active”.

As to `N[C@@H](CCC(=O)N[C@@H](CS)C(=O)NCC(=O)O)C(=O)O` [glutathione], on HIV protease I, the “inactivation of HIV protease I by covalent attachment to Cys95” value is on record as “inactivate HIV protease I”. Regarding “TLNL [tetrapeptide with free C and N termini from combinatorial library]”, in the experiment with HIV PR [2], the “activity in library screen against disulfide inactivation of HIV PR” value is listed as “most active”.

(Values after patent US7927579B2, “Tandem analyses of noncovalently driven effectors for modulatory mapping of activities of protein sites” (priority 2003, dated 2011).)
